From publication PMC2063867 come the findings set out here.

The target of the assay is FAK. The experiment in a line: anti-GFP co-IP, anti-myc blot. The settings on record: reference: WT-paxillin-GFP; sites S273.

Sequence of paxillin (P49024 whole entry, looked up, stated change not applied): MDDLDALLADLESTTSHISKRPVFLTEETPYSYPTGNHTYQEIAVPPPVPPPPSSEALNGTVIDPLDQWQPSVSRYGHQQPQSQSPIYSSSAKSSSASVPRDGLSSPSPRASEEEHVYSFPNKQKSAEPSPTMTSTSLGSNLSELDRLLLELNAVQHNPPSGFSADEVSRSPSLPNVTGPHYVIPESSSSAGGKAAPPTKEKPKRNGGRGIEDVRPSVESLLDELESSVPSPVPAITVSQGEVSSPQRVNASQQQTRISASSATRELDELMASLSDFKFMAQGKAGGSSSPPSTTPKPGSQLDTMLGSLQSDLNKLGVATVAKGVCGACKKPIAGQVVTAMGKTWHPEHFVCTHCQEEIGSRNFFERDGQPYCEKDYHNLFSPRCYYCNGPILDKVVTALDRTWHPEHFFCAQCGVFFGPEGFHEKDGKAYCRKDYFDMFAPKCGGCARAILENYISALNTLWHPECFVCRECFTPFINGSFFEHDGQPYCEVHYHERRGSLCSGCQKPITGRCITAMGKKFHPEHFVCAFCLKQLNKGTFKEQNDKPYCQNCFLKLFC

Substance “paxillin (from UniProt P49024) S273A-paxillin-GFP” gave an other: percent increase over reference of 25%.
